Data published in patent US20030232781A1.

Biological target: T1, CTCF (full-length) (UniProt P49711)
T1 sequence: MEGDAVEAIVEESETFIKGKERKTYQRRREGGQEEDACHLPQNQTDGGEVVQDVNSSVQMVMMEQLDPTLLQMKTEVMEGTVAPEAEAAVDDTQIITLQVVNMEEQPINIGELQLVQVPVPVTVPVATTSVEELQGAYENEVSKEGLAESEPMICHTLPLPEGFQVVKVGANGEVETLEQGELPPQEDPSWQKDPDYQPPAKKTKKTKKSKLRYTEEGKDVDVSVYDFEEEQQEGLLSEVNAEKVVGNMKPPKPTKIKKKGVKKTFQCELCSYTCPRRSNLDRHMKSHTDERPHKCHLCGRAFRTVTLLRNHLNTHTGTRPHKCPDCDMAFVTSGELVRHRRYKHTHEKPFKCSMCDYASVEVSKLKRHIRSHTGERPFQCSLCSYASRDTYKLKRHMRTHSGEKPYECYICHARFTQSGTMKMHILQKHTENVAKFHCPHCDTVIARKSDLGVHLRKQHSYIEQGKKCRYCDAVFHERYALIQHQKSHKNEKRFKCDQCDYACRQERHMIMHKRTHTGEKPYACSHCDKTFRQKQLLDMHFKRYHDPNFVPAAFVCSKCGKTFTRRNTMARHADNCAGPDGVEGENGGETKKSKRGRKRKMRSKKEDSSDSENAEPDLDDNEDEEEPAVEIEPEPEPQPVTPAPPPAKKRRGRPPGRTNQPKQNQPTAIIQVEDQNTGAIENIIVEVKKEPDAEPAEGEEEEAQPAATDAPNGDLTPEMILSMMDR
Experiment: SPR
Details: 5mC at all CpG (SssI); at least 1000-fold lower than unmethylated; no stable complexes

| Sequence | Ka [M⁻¹] |
| --- | --- |
| CGCGKGGTGGCAG (double strand) [DMD7 methylated] | 1e+08 |
| CGCGKGGTGGCAG (double strand) [DMD4 methylated] | 1e+08 |
